Test [1] concerns the target human IgG4 purified from human serum (human). Description: SPR (Biacore), IgG4 immobilized. In general terms: In SPR one partner is held on a chip, and binding of the other changes the refractive index at the surface.
The target is the same in test [2]. Description: SPR (Biacore), IgG4 immobilized on chip by amino coupling, antibody as analyte.
Test [3] has the same target. Description: latex agglutination inhibition, IgG4-sensitized latex, antibody in R1; free human IgG4 in sample 0.0 mg/dL.
For test [4] the target is unchanged. Description: latex agglutination inhibition, IgG4-sensitized latex, antibody in R1; free human IgG4 in sample 125 mg/dL.
For test [5] the target is unchanged. Briefly: latex agglutination inhibition, IgG4-sensitized latex, antibody in R1; free human IgG4 in sample 250 mg/dL.
Test [6] has the same target. Description: latex agglutination inhibition, IgG4-sensitized latex, antibody in R1; free human IgG4 in sample 500 mg/dL.
Test [7] shares this target. Description: latex agglutination inhibition, IgG4-sensitized latex, antibody in R1; free human IgG4 in sample 1000 mg/dL.
Test [8] has the same target. Description: latex agglutination inhibition, IgG4-sensitized latex, antibody in R1; free human IgG4 in sample 31.3 mg/dL.

Consider one substance from US20210140973A1.

As usually defined, the Kd is the equilibrium constant for the complex coming apart. A low value points to tighter binding. What is called koff is the first-order rate constant of dissociation. A higher koff goes with a short-lived complex. In general, kon refers to the rate constant with which the complex forms.

human IgG4 purified from human serum (human), sequence (constant, as listed by the source limits assumed): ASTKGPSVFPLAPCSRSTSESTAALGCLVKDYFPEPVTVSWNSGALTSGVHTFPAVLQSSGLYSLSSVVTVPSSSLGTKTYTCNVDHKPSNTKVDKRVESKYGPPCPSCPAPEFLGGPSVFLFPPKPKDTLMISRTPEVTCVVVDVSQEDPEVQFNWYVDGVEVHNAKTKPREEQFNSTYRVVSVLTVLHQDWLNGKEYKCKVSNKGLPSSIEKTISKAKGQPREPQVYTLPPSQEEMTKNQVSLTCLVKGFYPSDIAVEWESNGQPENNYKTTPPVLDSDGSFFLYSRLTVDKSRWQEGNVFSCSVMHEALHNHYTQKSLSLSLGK

On to “commercially available antibody HP6025 (Millipore Corporation)”, for which the ratio of binding rate constant ka to those of the MaI4-08 and MaI4-09-produced antibodies in test [1] was below 0.01 fold. The Kd in test [2] worked out at 408 nM. The same substance displayed an off-rate (koff) in test [2] of 0.000681 s⁻¹. Further, in test [2], the kon was 1670 M⁻¹ s⁻¹. Besides, the Absorbance change amount in 800 nm in test [3] is 0.003; in test [4] it was 0.0033; in test [5], 0.0034; in test [6], 0.0031; in test [7], 0.003; in test [8], 0.0036.
